Measurements as given in article PMC5045792.

Columns and labels:
[1] = molecular target: ToxR-TM-MBP chimera with the transmembrane domain of the FtsI homolog annotated for S. pneumoniae (S. pneumoniae); test: TOXGREEN
[2] = molecular target: ToxR-TM-MBP chimera with the transmembrane domain of the FtsI homolog annotated for S. pyogenes (S. pyogenes)

Row | Substance | GFP expression, percent of GpA [1] | GFP expression, percent of GpA [2]
1 | ToxR-TM-MBP chimera with the transmembrane domain of the FtsI homolog annotated for S. pneumoniae (domain or fragment) | > 100 % of GpA | –
2 | ToxR-TM-MBP chimera with the transmembrane domain of the FtsI homolog annotated for S. pyogenes (domain or fragment) | – | > 100 % of GpA
